Results published in patent US20020192640A1 (Boehringer Ingelheim, published 2002).

Biological target: T1, 4K-6H-NS2/3 (904-1206)st-4K (Hepatitis C virus genotype 1b)
T1 chain: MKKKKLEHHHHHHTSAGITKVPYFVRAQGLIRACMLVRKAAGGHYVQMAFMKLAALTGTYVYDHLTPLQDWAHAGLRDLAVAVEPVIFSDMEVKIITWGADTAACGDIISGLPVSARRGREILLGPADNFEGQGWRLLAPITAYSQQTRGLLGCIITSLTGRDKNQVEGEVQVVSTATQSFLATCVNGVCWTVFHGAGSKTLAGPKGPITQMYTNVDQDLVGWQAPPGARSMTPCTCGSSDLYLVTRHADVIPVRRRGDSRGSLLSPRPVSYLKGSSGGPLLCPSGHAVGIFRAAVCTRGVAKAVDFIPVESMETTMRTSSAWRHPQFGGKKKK
Test: cell-based or functional assay
APITAYSQQT [Peptide 3, APITAYSQQT] was tested, and the “IC50, inhibition of NS2/3 autocleavage” value was over 1000 µM. In the case of SFEGQGWRLL [Peptide 2, SFEGQGWRLL], the “IC50, inhibition of NS2/3 autocleavage” value is reported as 90 µM. For KGWRLLAPITAY [Peptide 4, KGWRLL-APITAY], the “IC50, inhibition of NS2/3 autocleavage” value was 630 µM. With APITAY [Peptide 5, APITAY] the “IC50, inhibition of NS2/3 autocleavage” value was 1000 µM. SFEGQGWRLLAPITAYSQQT [Peptide 1, SFEGQGWRLL-APITAYSQQT] was tested, and the “IC50, inhibition of NS2/3 autocleavage” value was 270 µM.
